From patent US20240400677A1 (ELECTRA THERAPEUTICS, published 2024)

T1: Cynomolgus Monkey SIRPγ (plate-coated extracellular domain)
T1 construct: also called Cyno SIRPγ
T1 extracellular domain: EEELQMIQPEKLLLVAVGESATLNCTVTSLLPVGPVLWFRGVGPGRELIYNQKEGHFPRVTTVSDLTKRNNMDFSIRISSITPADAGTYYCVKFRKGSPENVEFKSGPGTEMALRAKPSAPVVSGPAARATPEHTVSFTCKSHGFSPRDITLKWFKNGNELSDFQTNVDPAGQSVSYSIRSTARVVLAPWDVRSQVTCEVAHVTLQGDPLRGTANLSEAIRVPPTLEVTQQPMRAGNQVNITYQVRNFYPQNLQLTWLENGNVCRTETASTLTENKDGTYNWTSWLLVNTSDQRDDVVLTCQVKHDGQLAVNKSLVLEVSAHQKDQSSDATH

T2: cynomolgus monkey SIRPγ-His monomer protein (cynomolgus monkey, UniProt Q9P1W8 29-359 (human entry), limits assumed)
T2 construct: also called Cyno SIRPγ; Cyno SIRPγ-His
T2 chain: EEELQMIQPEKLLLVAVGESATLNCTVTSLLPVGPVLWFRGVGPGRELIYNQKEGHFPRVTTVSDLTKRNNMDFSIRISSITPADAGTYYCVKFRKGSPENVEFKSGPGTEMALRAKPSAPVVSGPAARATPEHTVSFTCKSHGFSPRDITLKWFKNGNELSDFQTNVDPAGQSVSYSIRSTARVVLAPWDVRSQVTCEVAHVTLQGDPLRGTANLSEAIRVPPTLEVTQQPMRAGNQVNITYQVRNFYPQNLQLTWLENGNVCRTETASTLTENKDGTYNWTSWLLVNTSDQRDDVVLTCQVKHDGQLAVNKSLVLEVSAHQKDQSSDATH

T3: cynomolgus monkey SIRPγ on CHO cells (cynomolgus monkey, UniProt Q9P1W8 29-386 (human entry))
T3 construct: also called Cyno SIRPγ CHO
T3 chain: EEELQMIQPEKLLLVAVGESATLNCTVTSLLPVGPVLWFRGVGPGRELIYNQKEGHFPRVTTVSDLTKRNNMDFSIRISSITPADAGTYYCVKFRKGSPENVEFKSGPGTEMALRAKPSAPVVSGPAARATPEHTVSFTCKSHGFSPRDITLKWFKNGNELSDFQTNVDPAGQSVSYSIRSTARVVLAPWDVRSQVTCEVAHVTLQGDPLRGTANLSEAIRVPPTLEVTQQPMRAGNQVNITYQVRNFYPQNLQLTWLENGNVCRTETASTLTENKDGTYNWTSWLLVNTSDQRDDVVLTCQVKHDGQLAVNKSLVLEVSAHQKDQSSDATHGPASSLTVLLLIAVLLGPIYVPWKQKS

T4: cynomolgus monkey SIRPα on CHO cells (cynomolgus monkey, UniProt A0A2K5VYQ9 31-507)
T4 construct: whole, on cells; also called Cyno SIRPα CHO
T4 sequence: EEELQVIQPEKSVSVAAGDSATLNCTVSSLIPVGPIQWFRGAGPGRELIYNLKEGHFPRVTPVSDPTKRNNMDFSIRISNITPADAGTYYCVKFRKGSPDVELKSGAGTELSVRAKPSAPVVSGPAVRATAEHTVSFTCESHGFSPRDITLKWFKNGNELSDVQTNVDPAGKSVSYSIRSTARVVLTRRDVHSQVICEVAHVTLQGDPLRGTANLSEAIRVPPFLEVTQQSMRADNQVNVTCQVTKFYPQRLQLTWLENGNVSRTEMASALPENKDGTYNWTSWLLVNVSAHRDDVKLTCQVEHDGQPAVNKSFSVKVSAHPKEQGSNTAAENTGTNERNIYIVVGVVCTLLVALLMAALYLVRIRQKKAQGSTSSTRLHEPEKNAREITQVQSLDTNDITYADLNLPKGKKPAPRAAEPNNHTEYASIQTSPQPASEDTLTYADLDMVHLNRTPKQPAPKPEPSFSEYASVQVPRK


How the values were obtained:
[1] = molecular target: T5, human SIRPγ on primary human T-cells (human, UniProt Q9P1W8 29-387); experiment: flow cytometry, dye-conjugated antibody, human whole blood (3 donors)
T5 construct: endogenous SIRPγ of donor T-cells; also called SIRPγ on T-cells
T5 sequence (Q9P1W8 29-387 limits assumed): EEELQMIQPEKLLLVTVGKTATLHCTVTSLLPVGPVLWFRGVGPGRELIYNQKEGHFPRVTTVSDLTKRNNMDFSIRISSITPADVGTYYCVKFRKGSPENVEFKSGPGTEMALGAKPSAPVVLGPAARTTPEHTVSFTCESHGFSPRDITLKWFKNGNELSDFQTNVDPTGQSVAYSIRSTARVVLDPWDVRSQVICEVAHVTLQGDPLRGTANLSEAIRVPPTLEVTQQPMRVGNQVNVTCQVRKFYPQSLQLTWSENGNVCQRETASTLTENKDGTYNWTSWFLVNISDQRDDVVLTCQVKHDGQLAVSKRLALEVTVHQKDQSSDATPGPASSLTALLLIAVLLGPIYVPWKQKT
Protocol: Selected antibodies and an isotype control were tested for binding to human T-cells, B-cells, NK cells, monocytes, and granulocytes. […] Up to 50 μg/mL fluorescent dye-conjugated antibodies or isotype controls were incubated with whole blood from three normal donors. T-cells were identified as the CD14−, CD20−, SSClow, and CD3+ population or further identified to be CD4+ or CD8+ populations. B-cells were identified as the CD14−, SSClow, and CD20+ population. NK cells were identified as CD14−, CD20−, CD3−, and CD56+. Monocytes were identified as the SSClow and CD14+ population. Granulocytes were identified as the CD14−, CD20−, CD3−, SSChigh population. Graphs depict the median fluorescence intensity (MFI) of each population.

[2] = molecular target: T6, extracellular binding domain of human SIRPγ (plate-coated) (human, UniProt Q9P1W8 29-360); experiment: ELISA, coated SIRP ECD (2 µg/mL), anti-human IgG, luminescence
T6 construct: also called hSIRPγ
T6 sequence (Q9P1W8 29-360 limits assumed): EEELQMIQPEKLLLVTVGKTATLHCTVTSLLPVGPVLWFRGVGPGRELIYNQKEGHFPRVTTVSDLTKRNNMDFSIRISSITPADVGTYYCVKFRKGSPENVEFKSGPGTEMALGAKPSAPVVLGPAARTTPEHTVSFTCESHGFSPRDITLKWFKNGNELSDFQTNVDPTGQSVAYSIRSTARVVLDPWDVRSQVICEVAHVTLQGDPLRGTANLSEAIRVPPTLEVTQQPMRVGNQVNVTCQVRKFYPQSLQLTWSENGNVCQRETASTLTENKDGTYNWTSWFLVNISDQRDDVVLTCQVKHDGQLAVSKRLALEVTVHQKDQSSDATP
Outline: (§1)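 Plate-coated SIRP extracellular domain (2 μg/mL), blocked, then exposed to purified antibodies in titration, after transient expression in Expi293F cells for 5 days and Protein A purification. Bound antibody is detected with anti-human IgG and a chemiluminescent substrate, and reported as relative luminescence units.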

[3] = molecular target: T1, Cynomolgus Monkey SIRPγ (plate-coated …); experiment: as above
Outline: as §1

[4] = molecular target: T7, human SIRPβ1-His monomer protein (human, UniProt O00241 30-371, limits assumed); experiment: BLI
T7 sequence (O00241 30-371 limits assumed): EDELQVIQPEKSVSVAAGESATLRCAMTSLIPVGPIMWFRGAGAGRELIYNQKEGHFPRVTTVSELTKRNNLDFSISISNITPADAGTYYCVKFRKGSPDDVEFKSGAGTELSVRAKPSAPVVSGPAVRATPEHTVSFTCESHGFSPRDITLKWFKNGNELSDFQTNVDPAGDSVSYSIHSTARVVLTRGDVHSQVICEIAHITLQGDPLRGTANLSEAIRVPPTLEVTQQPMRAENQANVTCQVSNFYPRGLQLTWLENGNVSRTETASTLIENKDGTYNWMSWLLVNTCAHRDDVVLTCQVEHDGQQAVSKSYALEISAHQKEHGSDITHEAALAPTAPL
Protocol: (§2) Select antibodies from Example 1 of the disclosure were tested for their affinities to human SIRPγ, cynomolgus monkey SIRPγ, human SIRPαV1, human SIRPαV2, and human SIRPβ1 using a biolayer interferometry (BLI) Octet system (Pall ForteBio). Each antibody was immobilized on a biosensor tip by an anti-human IgG capture (AHC). […] The biosensors were then exposed to wash buffer to measure off-rate kinetics. The resulting kinetic data were analyzed and fitted using a 1:1 binding model.

[5] = molecular target: T8, human SIRPγ-His monomer protein (human, UniProt Q9P1W8 29-360); experiment: BLI Octet, antibody on AHC, SIRP-His monomer, 1:1 model
T8 construct: also called hSIRPγ
T8 sequence (Q9P1W8 29-360 limits assumed): as the sequence (Q9P1W8 29-360 limits assumed) above
Protocol: as §2

[6] = molecular target: T2, cynomolgus monkey SIRPγ-His monomer …; experiment: as above
Protocol: as §2

[7] = molecular target: T3, cynomolgus monkey SIRPγ on CHO cells; experiment: flow cytometry, myc-scFv PPE
Outline: (§3)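 Read-out is median fluorescence intensity for each antibody concentration, measured after a titration series is bound to stably transfected CHO cells and stained with labelled anti-human IgG. The scFv data come from myc-tagged crude PPE, also run on parental CHO-K1, where fold change below 2.0 denotes no binding.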

[8] = molecular target: T4, cynomolgus monkey SIRPα on CHO cells; experiment: flow cytometry, myc-scFv PPE
Outline: as §3

[9] = molecular target: T9, human SIRPγ on stably transfected CHO cells (human, UniProt Q9P1W8 29-387); experiment: flow cytometry, myc-scFv PPE
T9 construct: also called Human SIRPγ CHO
T9 sequence (Q9P1W8 29-387 limits assumed): as the sequence (Q9P1W8 29-387 limits assumed) above
Outline: as §3

[10] = molecular target: T10, human SIRPβ1 on CHO cells (co-transfected with DAP12) (human, UniProt O00241 30-398); experiment: flow cytometry
T10 construct: whole, on cells; co-transfected with DAP12; also called Human SIRPβ1 CHO
T10 sequence (O00241 30-398): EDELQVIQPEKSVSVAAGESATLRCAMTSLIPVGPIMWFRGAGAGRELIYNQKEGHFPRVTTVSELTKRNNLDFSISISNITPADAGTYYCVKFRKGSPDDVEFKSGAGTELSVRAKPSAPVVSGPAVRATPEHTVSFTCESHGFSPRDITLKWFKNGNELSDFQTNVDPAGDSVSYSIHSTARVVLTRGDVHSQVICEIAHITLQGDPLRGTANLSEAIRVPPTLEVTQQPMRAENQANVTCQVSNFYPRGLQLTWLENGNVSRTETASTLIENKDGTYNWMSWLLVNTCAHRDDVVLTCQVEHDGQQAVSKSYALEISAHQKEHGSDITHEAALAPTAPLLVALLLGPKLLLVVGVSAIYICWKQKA

[11] = molecular target: T8, human SIRPγ-His monomer protein; experiment: BLI Octet, V5-scFv PPE captured, SIRP-His 500 nM
[12] = molecular target: T7, human SIRPβ1-His monomer protein; experiment: BLI Octet, V5-scFv PPE captured, SIRP-His 500 nM
[13] = molecular target: T2, cynomolgus monkey SIRPγ-His monomer …; experiment: BLI Octet, captured scFv PPE, cyno SIRP
Outline: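 Bio-layer interferometry used biotinylated anti-V5 on streptavidin sensors to capture V5-tagged scFv from crude periplasmic extract. Monomeric His-tagged SIRP protein at 500 nM was associated, then dissociated in wash buffer. Off-rate (kdis) was analyzed from the kinetic traces.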

[14] = molecular target: T4, cynomolgus monkey SIRPα on CHO cells; experiment: flow cytometry
[15] = molecular target: T11, human SIRPα V2-His monomer protein (human, UniProt P78324 31-370, limits assumed); experiment: BLI Octet, V5-scFv PPE captured, SIRP-His 500 nM
T11 construct: the V2 allele differs from the canonical UniProt P78324 entry
T11 sequence (P78324 other isoform, or with tags, fused parts or gaps limits assumed): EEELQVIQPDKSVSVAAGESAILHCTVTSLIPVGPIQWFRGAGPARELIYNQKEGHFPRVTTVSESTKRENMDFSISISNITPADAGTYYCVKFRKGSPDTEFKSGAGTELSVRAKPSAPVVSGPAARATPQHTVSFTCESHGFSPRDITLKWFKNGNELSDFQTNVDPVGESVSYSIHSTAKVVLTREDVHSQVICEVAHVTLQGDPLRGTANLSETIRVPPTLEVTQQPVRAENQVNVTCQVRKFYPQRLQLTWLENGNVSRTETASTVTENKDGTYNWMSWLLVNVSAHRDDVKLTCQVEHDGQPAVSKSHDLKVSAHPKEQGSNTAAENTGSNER

[16] = molecular target: T11, human SIRPα V2-His monomer protein; experiment: BLI
Protocol: as §2

[17] = molecular target: T12, Human SIRPαV2 (plate-coated extracellular domain) (Homo sapiens, UniProt P78324); experiment: ELISA, coated SIRP ECD (2 µg/mL), anti-human IgG, luminescence
T12 construct: extracellular domain
T12 sequence (P78324 other isoform, or with tags, fused parts or gaps limits assumed): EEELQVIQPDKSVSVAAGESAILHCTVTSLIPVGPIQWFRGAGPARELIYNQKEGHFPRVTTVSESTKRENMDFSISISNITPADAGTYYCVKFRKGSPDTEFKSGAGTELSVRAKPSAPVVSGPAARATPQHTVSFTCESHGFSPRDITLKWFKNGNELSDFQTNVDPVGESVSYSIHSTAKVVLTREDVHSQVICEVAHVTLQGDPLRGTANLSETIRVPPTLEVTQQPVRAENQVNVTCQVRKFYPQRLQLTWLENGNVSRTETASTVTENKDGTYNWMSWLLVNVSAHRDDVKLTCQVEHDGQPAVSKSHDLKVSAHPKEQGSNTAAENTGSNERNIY
Outline: as §1

Row | EC50 (read off the curve) [1] | EC50 (read off the curve) [2] | MFI fold change over parental CHO [7] | MFI fold change over parental CHO [9] | kdis [11] | binding result [17] | Binder | also measured
1 | ~0.1 µg/mL | ~0.02 µg/mL |  |  |  |  | Antibody 6 (antibody, V domains shown) VH: QVQLVQSGAEVKKPGASVKVSCKASGYTFTGYHIHWVRQAPGQGLEWMGWINPNSGGTNYAQKFQGRVTMTRDTSINTAYMELNRLRSDDTAVFYCARERVGYCSRPSCLDDLNIWGQGTMVTVSS VL: DIQMTQSPSTLSASVGDRVTITCRASQSISSWLAWYQQKPGKAPKLLIYKASSLETGVPSRFSGSGSGTEFTLTISSLQPDDFATYYCQQYDSYYTFGQGTKLEIK | EC50 (read off the curve) [3]: ~0.1 µg/mL
2 | ~0.1 µg/mL | ~0.02 µg/mL |  |  |  |  | Antibody 5 (antibody, V domains shown) VH: QVQLVQSGAEVKKPGASVKVSCKASGYTFTGYHIHWVRQAPGQGLEWMGWINPNSGGTNYAQKFQGRVTMTRDTSINTAYMELNRLRSDDTAVFYCARERVGYCSRPSCLDDLNIWGQGTMVTVSS VL: DIQMTQSPSTLSASVGDRVTITCRASQSISSWLAWYQQKPGKAPKLLIYKASSLETGVPSRFSGSGSGTEFTLTISSLQPDDFATYYCQQYDSYYTFGQGTKLEIK | EC50 (read off the curve) [3]: ~0.07 µg/mL
3 | ~0.1 µg/mL | ~0.04 µg/mL |  |  |  |  | Antibody 8 (antibody, V domains shown) VH: QVQLVQSGAEVKKPGASVKVSCKASGYTFTGYHIHWVRQAPGQGLEWMGWINPNSGGTNYAQKFQGRVTMTRDTSINTAYMELNRLRSDDTAVFYCARERVGYCSRPSCLDDLNIWGQGTMVTVSS VL: DIQMTQSPSTLSASVGDRVTITCRASQSISSWLAWYQQKPGKAPKLLIYKASSLETGVPSRFSGSGSGTEFTLTISSLQPDDFATYYCQQYDSYYTFGQGTKLEIK | binding result [4]: no binding (tested: 300 nM); Kd [5]: 2.07 nM; Kd [6]: 8.01 nM
4 |  |  | 36.6 fold | 43.3 fold | < 0.001 s⁻¹ |  | Antibody 19 (scFv, V domains shown, scFv in crude PPE, V5/myc-tagged) VH: QVQLVQSGAEVKKPGASVKVSCKASGYTFTAYYMHWVRQAPGQGLEWMGIINPSGGSTSYAQKFQGRVTMTRDTSTSTVYMELSSLRSEDTAVYYCARDSGWYAPGYYYGMDVWGQGTTVTVSS VL: DIQMTQSPSSLSASVGDRVTITCRASESISHWLAWYQQKPGKAPKLLIYGASTLQSGVPSRFSGSGSGTDFTLTISSLQPEDFATYYCQQSYTPPLTFGGGTKVEIK | MFI fold change over parental CHO [8]: 2.01 fold; binding result [10]: no binding (tested: fold change <2.0)
5 |  |  | 8.24 fold | 3.17 fold | < 0.001 s⁻¹ |  | Antibody 22 (scFv, V domains shown, scFv in crude PPE, V5/myc-tagged) VH: QVQLVQSGAEVKKPGASVKVSCKASGYTFTSHDINWVRQAPGQGLEWMGISNPSGGSTYYAQKFQGRVTMTRDTSTSTVYMELSSLRSEDTAVYYCASSRRYWNGAFDYWGQGTLVTVSS VL: not shown | kdis [12]: < 0.001 s⁻¹; binding result [13]: binds
6 |  |  | 24 fold | 46.5 fold | 0.001 to 0.01 s⁻¹ |  | Antibody 28 (scFv, V domains shown, scFv in crude PPE, V5/myc-tagged) VH: QVQLVQSGAEVKKPGASVKVSCKASGYTFTSYNIHWVRQAPGQGLEWMGWISAYNGNTNYAQKLQGRVTMTRDTSTSTVYMELSSLRSEDTAVYYCALDGGQLGVAFDIWGQGTMVTVSS VL: DIQMTQSPSSLSASVGDRVTITCRASQGISNWLAWYQQKPGKAPKLLIYDASNLDAGVPSRFSGSGSGTDFTLTISSLQPEDFATYYCQQANSLPLTFGGGTKVEIK | binding result [14]: no binding (tested: fold change <2.0); kdis [15]: 0.001 to 0.01 s⁻¹; kdis [12]: < 0.001 s⁻¹; binding result [13]: binds
7 |  | ~0.3 µg/mL |  |  |  | no binding (tested: about 40 µg/mL) | Antibody 7 (antibody, V domains shown) VH: QVQLVESGGGVVQPGRSLRLSCAASGFTFSNYGMHWVRQAPGKGLEWVAFIWYDGSNKNYADSVKGRFTISRDNPTNTLYLQMNSLRAEDTAVYYCAREEQWLDYWGQGTLVTVSS VL: not shown | binding result [16]: no binding (tested: 300 nM); binding result [4]: no binding (tested: 300 nM); Kd [5]: 296 nM; Kd [6]: 2200 nM
8 |  | ~0.1 µg/mL |  |  |  | no binding (tested: about 40 µg/mL) | Antibody 3 (antibody, V domains shown) VH: QVQLVESGGGVVQPGRSLRLSCAASGFTFSNYGMHWVRQAPGKGLEWVAFIWYDGSNKNYADSVKGRFTISRDNPTNTLYLQMNSLRAEDTAVYYCAREEQWLDYWGQGTLVTVSS VL: not shown | 
9 |  | ~0.1 µg/mL |  |  |  | no binding (tested: about 40 µg/mL) | Antibody 4 (antibody, V domains shown) VH: QVQLVESGGGVVQPGRSLRLSCAASGFTFSNYGMHWVRQAPGKGLEWVAFIWYDGSNKNYADSVKGRFTISRDNPTNTLYLQMNSLRAEDTAVYYCAREEQWLDYWGQGTLVTVSS VL: not shown | 
